Measured values as given in paper PMC10163058.
pKd: −log10 of the molar value.

What was measured:
[1] = target: paired immunoglobulin-like receptor B (PirB), expressed on CHO cells (mouse) (UniProt P97484)
[2] = target: paired immunoglobulin-like receptor B (PirB), expressed on CHO cells (mouse) (UniProt P97484); remark: listed apart in the source
[3] = target: His6-tagged recombinant PirB (Abcam #ab276923) (mouse) (UniProt P97484); test: atomic force microscopy (single-molecule force spectroscopy); His6-PirB held on Ni2+-NTA gold-coated model surfaces; AFM tips functionalised with T3SA- virions or σ3 through a PEG linker; virus buffer; koff from Bell-Evans fit of dynamic force spectroscopy, kon from binding probability against contact time (pseudo-first-order), KD calculated from both

Substance | tyrosine phosphorylation of immunoprecipitated myc-tagged PirB in CHO cells after T3SA+ adsorption (immunoblot with pTyr-specific mAb cocktail) [1] | decrease in infection of primary murine cortical neurons (endogenous PirB) by T3SA+ (100 PFU/cell) after incubation with 5 μg/ml PirB-specific mAb 6C1, IFA [2] | pKd [3] | koff [3] | kon [3]
reovirus strain T3SA+ virions (from UniProt P03528 1-455; P07939 1-365) (complex) | > 3 fold | 50% | – | – | –
reovirus strain T3SA- virions (from UniProt P03528 1-455; P07939 1-365) (complex) | – | – | 8.71 | 0.2 s⁻¹ | 1.03e+08 M⁻¹ s⁻¹
